Source: the RNAGym collection of RNA variant scans (doi:10.7554/elife.80360)

B1: Hammerhead Ribozyme (parent)
chain: ACCGGAUGUGCUUUCCGGUCUGAUGAGUCCGUGAGGACGAAACAG
B2: Hairpin Ribozyme (parent)
chain: GUCCUCUUUCACGUGCGCGUGAAAGAGAGAAGUGAACCAGAGAAACACACGUUGUGGUAUAUUACCUGGUA

Variants of: B1
Assay: self-cleavage, relative activity (ratio to wild type); higher = more cleavage; co-transcriptional

Going from U21G A26U to C3A U32C, the self-cleavage rises from 0.431 to 0.803.

Compared with G27C A40G, C16U A40G is lower in self-cleavage: 0.297 for the first, 0.294 for the second.

Compared with G18U A44C, U7C C30G is higher in self-cleavage: 0.431 for the first, 1.09 for the second.

Going from G22C G25U to A6C A44U, the self-cleavage falls from 0.432 to 0.36.

Compared with C15U C16U, A40U C43G is lower in self-cleavage: 0.776 for the first, 0.287 for the second.

Going from G10A A23U to U13A U24C, the self-cleavage rises from 0.33 to 1.07.

First: C2G U32A
Second: U12A A26C
The self-cleavage of the first is lower: 0.418 for the first, 0.429 for the second.

Compared with A37U A44U, C11G G45A is higher in self-cleavage: 0.417 for the first, 0.626 for the second.

Going from C16U G36C to A42G G45A, the self-cleavage falls from 0.375 to 0.306.

First: A42G G45C
Second: A26C G27C
The self-cleavage of the first is higher: 0.31 for the first, 0.303 for the second.

First: A1C G27U
Second: G8A U19A
The self-cleavage of the first is lower: 0.328 for the first, 0.402 for the second.

First: U28G A37G
Second: U14A A40C
The self-cleavage of the first is lower: 0.45 for the first, 0.491 for the second.

First: G39C A44C
Second: A26G G45A
The self-cleavage of the first is higher: 0.437 for the first, 0.3 for the second.

First: C11U G18A
Second: U9G G10A
The self-cleavage of the first is lower: 0.428 for the first, 0.891 for the second.

First: G8U U21C
Second: G17A G31C
The self-cleavage of the first is higher: 0.819 for the first, 0.652 for the second.

Going from G17C G25A to C15U G31A, the self-cleavage rises from 0.362 to 0.781.

First: G8U U28C
Second: A1G U7C
The self-cleavage of the first is lower: 1.23 for the first, 1.39 for the second.

Going from C16A A42G to U9C G35A, the self-cleavage rises from 0.296 to 0.814.

Going from G27C G39U to G27A U32A, the self-cleavage rises from 0.31 to 0.736.

Compared with G17U U32A, A6G C15G is lower in self-cleavage: 0.764 for the first, 0.54 for the second.

Going from A6G C15U to A34U A41U, the self-cleavage falls from 0.811 to 0.281.

Going from C11U A34G to C2U U19A, the self-cleavage falls from 0.83 to 0.365.

Going from U13G A34U to G18A A37C, the self-cleavage falls from 0.976 to 0.611.

Going from G17A C20G to U9A U12A, the self-cleavage rises from 0.367 to 1.23.

First: U7A U32C
Second: C29U G45U
The self-cleavage of the first is higher: 0.797 for the first, 0.596 for the second.

Compared with G4C G22C, C2U A42U is higher in self-cleavage: 0.241 for the first, 0.301 for the second.

First: G4A G22U
Second: G10A C38G
The self-cleavage of the first is lower: 0.302 for the first, 0.751 for the second.

Going from G5U G31C to U7C C16A, the self-cleavage falls from 1.03 to 0.738.

Compared with U9G A42U, G31C A42U is higher in self-cleavage: 0.28 for the first, 0.373 for the second.

First: C2A A26G
Second: C11U G33U
The self-cleavage of the first is lower: 0.293 for the first, 1.04 for the second.

Compared with C30A G33A, G22C U32C is lower in self-cleavage: 1.21 for the first, 0.335 for the second.

Compared with C11U U32A, C16U G27C is lower in self-cleavage: 0.889 for the first, 0.783 for the second.

Going from A1C C29U to C2G, the self-cleavage rises from 0.402 to 0.455.

Variants of: B2
Assay: as above

First: G1A C48G
Second: G1C G27A
The self-cleavage of the first is higher: 0.201 for the first, 0.16 for the second.

Compared with G1A A23U, G1C G32A is higher in self-cleavage: 0.163 for the first, 0.198 for the second.

Going from G1A G42U to G1A A61G, the self-cleavage rises from 0.0643 to 0.132.

Going from G1A A61C to G1A A35C, the self-cleavage falls from 0.175 to 0.109.

Going from G1A A35G to G1A G68C, the self-cleavage rises from 0.16 to 0.181.

Going from G1C A26C to G1C A26G, the self-cleavage rises from 0.14 to 0.239.

First: G1A A59U
Second: G1A A36U
The self-cleavage of the first is higher: 0.286 for the first, 0.0776 for the second.

Going from G1A C3G to G1C C38U, the self-cleavage falls from 0.342 to 0.198.

Compared with G1A C37U, G1A C12A is lower in self-cleavage: 0.196 for the first, 0.131 for the second.

Compared with G1A C12G, G1C G29C is lower in self-cleavage: 0.263 for the first, 0.203 for the second.

Compared with G1A U63C, G1C C65A is lower in self-cleavage: 0.166 for the first, 0.141 for the second.

Compared with G1A C10A, G1A U52G is lower in self-cleavage: 0.175 for the first, 0.0884 for the second.

Compared with G1C C3A, G1A G69U is lower in self-cleavage: 0.257 for the first, 0.235 for the second.

Compared with G1C A44C, G1C A28G is higher in self-cleavage: 0.125 for the first, 0.167 for the second.

Compared with G1C C37U, G1A A47U is higher in self-cleavage: 0.177 for the first, 0.257 for the second.

Going from G1A C38A to G1A C18U, the self-cleavage rises from 0.111 to 0.256.

Going from G1C A24G to G1C C46A, the self-cleavage rises from 0.129 to 0.208.

Going from G1C C46G to G1C C46U, the self-cleavage falls from 0.307 to 0.0993.

Compared with G1C A41G, G1A A49G is higher in self-cleavage: 0.129 for the first, 0.233 for the second.

First: G1C G13C
Second: G1C G13U
The self-cleavage of the first is lower: 0.179 for the first, 0.225 for the second.

First: G1C G13A
Second: G1A G15C
The self-cleavage of the first is lower: 0.0408 for the first, 0.287 for the second.

Going from G1C A11U to G1A C4G, the self-cleavage falls from 0.179 to 0.149.

Going from G1A C4A to G1A U67C, the self-cleavage falls from 0.248 to 0.178.

Compared with G1C G25C, G1C G25A is lower in self-cleavage: 0.159 for the first, 0.154 for the second.

G1C C6U and G1C C6G are the same in self-cleavage: 0.249 for the first, 0.249 for the second.

Going from G1C A30G to G1C A36G, the self-cleavage falls from 0.322 to 0.105.

First: G1C A36C
Second: G1A G56U
The self-cleavage of the first is higher: 0.107 for the first, 0.0996 for the second.

First: G1A G56C
Second: G1C A45C
The self-cleavage of the first is higher: 0.282 for the first, 0 for the second.

First: G1C A45G
Second: G1A U5C
The self-cleavage of the first is lower: 0.0824 for the first, 0.269 for the second.

Compared with G1A G25C, G1A C66G is higher in self-cleavage: 0.209 for the first, 0.225 for the second.

Compared with G1A A28C, G1A C46G is lower in self-cleavage: 0.175 for the first, 0.104 for the second.

First: G1A G54C
Second: G1C A47G
The self-cleavage of the first is higher: 0.193 for the first, 0.13 for the second.

Going from G1C A47U to G1A U33G, the self-cleavage falls from 0.152 to 0.119.

First: G1C
Second: G1A
The self-cleavage of the first is higher: 0.203 for the first, 0.185 for the second.

First: G1C A59G
Second: G1C A59U
The self-cleavage of the first is lower: 0.0434 for the first, 0.114 for the second.

Going from G1C A39G to G1C A39C, the self-cleavage rises from 0.146 to 0.225.

Compared with G1A C6A, G1A C16G is lower in self-cleavage: 0.197 for the first, 0.169 for the second.

First: G1A G32A
Second: G1A G32U
The self-cleavage of the first is higher: 0.196 for the first, 0.184 for the second.

Compared with G1C C50A, G1C C50U is higher in self-cleavage: 0.147 for the first, 0.321 for the second.

Going from G1C G34U to G1C A35G, the self-cleavage falls from 0.344 to 0.121.

Compared with G1C G15A, G1C C10G is higher in self-cleavage: 0.184 for the first, 0.247 for the second.

Going from G1C C10U to G1C G17C, the self-cleavage rises from 0.241 to 0.295.

First: G1C G17A
Second: G1C A22G
The self-cleavage of the first is lower: 0.232 for the first, 0.255 for the second.

Going from G1A C50A to G1A C50G, the self-cleavage rises from 0.127 to 0.277.

Going from G1C G21U to G1C G21A, the self-cleavage falls from 0.274 to 0.109.

Going from G1A G57U to G1A G57A, the self-cleavage falls from 0.179 to 0.177.

Going from G1A A41G to G1A U20A, the self-cleavage rises from 0.0682 to 0.213.

Compared with G1A G34U, G1A G34C is lower in self-cleavage: 0.189 for the first, 0.09 for the second.

Going from G1A G51A to G1A G27C, the self-cleavage rises from 0.21 to 0.213.

Going from G1C C16G to G1C A23U, the self-cleavage falls from 0.238 to 0.197.

G1C A23C gave a self-cleavage of 0.103.
